Patent US6872803
[ ]: non-standard residue; d: D form. Hyp = O=C(O)[C@@H]1C[C@@H](O)CN1; NMeI = CC[C@H](C)[C@H](NC)C(=O)O

Legend:
[1] = molecular target: Bovine lung-derived ANP receptor (bovine); test: displacement of 125I-rat ANP from bovine lung membrane fraction, filter binding
[2] = molecular target: BK receptor derived from guinea pig ilea (guinea pig); test: inhibition of 3H-BK (200 pM) binding to guinea pig ileum membrane fraction; test compound at 10^-7 M
[3] = molecular target: BK receptor derived from guinea pig ilea (guinea pig); test: inhibition of 3H-BK (200 pM) binding to guinea pig ileum membrane fraction; test compound at 10^-8 M

Sequence of BK receptor derived from guinea pig ilea (guinea pig) (O70526 whole entry): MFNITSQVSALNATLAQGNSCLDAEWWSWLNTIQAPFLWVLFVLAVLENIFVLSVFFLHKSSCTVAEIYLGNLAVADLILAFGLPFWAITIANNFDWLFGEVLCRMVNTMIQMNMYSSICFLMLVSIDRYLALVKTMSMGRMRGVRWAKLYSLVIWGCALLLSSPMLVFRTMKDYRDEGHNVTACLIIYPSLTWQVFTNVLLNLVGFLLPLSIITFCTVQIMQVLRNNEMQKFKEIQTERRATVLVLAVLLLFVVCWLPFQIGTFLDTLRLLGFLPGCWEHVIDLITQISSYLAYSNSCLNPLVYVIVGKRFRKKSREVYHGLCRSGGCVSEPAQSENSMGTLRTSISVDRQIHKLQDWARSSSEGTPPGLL
Sequence of Bovine lung-derived ANP receptor (bovine) (P10730 42-537): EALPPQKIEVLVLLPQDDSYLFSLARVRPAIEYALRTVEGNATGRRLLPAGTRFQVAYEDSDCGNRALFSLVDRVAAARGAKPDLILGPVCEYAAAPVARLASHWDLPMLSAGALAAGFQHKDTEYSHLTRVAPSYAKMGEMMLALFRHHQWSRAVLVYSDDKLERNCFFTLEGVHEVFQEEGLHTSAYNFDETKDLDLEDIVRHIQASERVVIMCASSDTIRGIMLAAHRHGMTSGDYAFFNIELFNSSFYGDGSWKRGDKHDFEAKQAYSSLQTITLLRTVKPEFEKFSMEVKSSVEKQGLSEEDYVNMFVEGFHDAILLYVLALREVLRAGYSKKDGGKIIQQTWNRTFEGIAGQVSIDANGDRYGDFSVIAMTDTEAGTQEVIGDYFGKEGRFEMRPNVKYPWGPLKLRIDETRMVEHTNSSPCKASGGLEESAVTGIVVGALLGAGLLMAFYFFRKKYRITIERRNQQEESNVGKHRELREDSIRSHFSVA

Binder | IC50 [1] [nM] | Percentage inhibition (%) [2] [%] | Percentage inhibition (%) [3] [%]
H-FGG[dR]ID[dR]I-NH2 (SMILES CC[C@H](C)[C@H](NC(=O)[C@@H](CCCNC(=N)N)NC(=O)[C@H](CC(=O)O)NC(=O)[C@@H](NC(=O)[C@@H](CCCNC(=N)N)NC(=O)CNC(=O)CNC(=O)[C@@H](N)Cc1ccccc1)[C@@H](C)CC)C(N)=O) [Compound (j), H-Phe-Gly-Gly-D-Arg-Ile-Asp-D-Arg-Ile-NH2] | 5400 |  | 
H-[dR]RP[Hyp]GFS[dF]LR-OH (SMILES CC(C)C[C@H](NC(=O)[C@@H](Cc1ccccc1)NC(=O)[C@H](CO)NC(=O)[C@H](Cc1ccccc1)NC(=O)CNC(=O)[C@@H]1C[C@@H](O)CN1C(=O)[C@@H]1CCCN1C(=O)[C@H](CCCNC(=N)N)NC(=O)[C@H](N)CCCNC(=N)N)C(=O)N[C@@H](CCCNC(=N)N)C(=O)O) [Compound (m), H-D-Arg-Arg-Pro-Hyp-Gly-Phe-Ser-D-Phe-Leu-Arg-OH] |  | 68 | 20
H-FGGR[NMeI]DRI-NH2 (SMILES CC[C@H](C)[C@H](NC(=O)[C@H](CCCNC(=N)N)NC(=O)[C@H](CC(=O)O)NC(=O)[C@H]([C@@H](C)CC)N(C)C(=O)[C@H](CCCNC(=N)N)NC(=O)CNC(=O)CNC(=O)[C@@H](N)Cc1ccccc1)C(N)=O) [Compound (k), H-Phe-Gly-Gly-Arg-(N-Me)Ile-Asp-Arg-Ile-NH2] | 21 |  | 
